Experimental data from patent US20060115837A1 (WASHINGTON UNIVERSITY, published 2006).

How the values were obtained:
[1] = biological target: West Nile Virus envelope protein on WNV virions (West Nile Virus) (UniProt Q9Q6P4); experiment: cell-based or functional assay
[2] = biological target: T1, West Nile Virus envelope protein on WNV virions (West Nile Virus, UniProt Q9Q6P4 291-791); experiment: cell-based or functional assay
T1 sequence: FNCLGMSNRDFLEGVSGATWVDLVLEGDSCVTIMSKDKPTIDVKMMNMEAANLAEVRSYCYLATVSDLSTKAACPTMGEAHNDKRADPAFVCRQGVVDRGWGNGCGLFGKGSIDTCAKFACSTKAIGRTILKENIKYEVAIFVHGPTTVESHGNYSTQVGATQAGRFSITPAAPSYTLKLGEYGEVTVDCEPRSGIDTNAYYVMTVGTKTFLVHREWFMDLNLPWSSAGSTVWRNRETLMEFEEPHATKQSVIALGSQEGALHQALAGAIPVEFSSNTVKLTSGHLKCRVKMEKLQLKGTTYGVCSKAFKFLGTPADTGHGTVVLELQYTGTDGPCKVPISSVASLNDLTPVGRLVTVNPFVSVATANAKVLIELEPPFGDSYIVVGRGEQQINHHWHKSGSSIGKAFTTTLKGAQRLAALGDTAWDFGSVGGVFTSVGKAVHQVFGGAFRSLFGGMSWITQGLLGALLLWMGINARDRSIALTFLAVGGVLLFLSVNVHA

| Molecule | blockade of cellular attachment of WNV to Vero cells (cell-associated viral RNA by fluorogenic RT-PCR), fold reduction [1] [fold] | blockade of cellular attachment of WNV to Vero cells (cell-associated viral RNA by fluorogenic RT-PCR), fold reduction [2] [fold] |
| --- | --- | --- |
| monoclonal antibody E60 | 8 to 9 |  |
| monoclonal antibody E16 (antibody, V domains shown) VH: QVQLQQSGSELMKPGASVQISCKATGYTFSDYWIEWVKQRPGHGLEWIGILCGTGRTRYNEKLKAMATFTADTSSNTAFMQLSSLTSEDSAVYYCARSASYGDYADYWGHGTTLTVSS VL: DIVMTQSHKFMSTSVGDRVSITCKASQDVSTAVAWYQQKPGQSPKLLISWASTRHTGVPDRFTGSGSGTDYTLTISSVQAEDLALYYCQQHYTTPLTFGAGTKLELK |  | 3.5 |
